Measurements as given in the supplement of paper PMC9233669.
Variants at the floor of the assay were thinned out.

How the values were obtained:
biotinyl-Leu-oxazolone = test: self-aminoacylation, catalytic enhancement (BLO) (fold over background); higher = more active; k-Seq, kA / k0A0; sequences stand for … in GGGAAUGGAUCCACAUCUACGAAUUC…UUCACUGCAGACUUGACGAAGCUG
Summary of the method: (§1)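 The uncatalyzed rate is the low-activity peak of a bimodal Gaussian fit, and catalytic enhancement is median kA divided by it. The kA values came from pseudo-first-order fits, with 1000 bootstraps, of per-sequence fraction reacted measured by streptavidin capture, triplicate qPCR and Illumina sequencing. Mutagenized RNA pools with a 21-nt variable region (0.43 μM) were reacted with each biotinyl-aminoacyl-oxazolone at 2–1250 μM in 50 μL HEPES/NaCl/KCl/MgCl2/CaCl2 buffer with 5% acetonitrile, pH 6.9–7.0, for 90 minutes at room temperature.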

biotinyl-Val-oxazolone = test: self-aminoacylation, catalytic enhancement (BVO) (fold over background); higher = more active; k-Seq, kA / k0A0; sequences stand for … in GGGAAUGGAUCCACAUCUACGAAUUC…UUCACUGCAGACUUGACGAAGCUG
Summary of the method: as §1

biotinyl-Met-oxazolone = test: self-aminoacylation, catalytic enhancement (BMO) (fold over background); higher = more active; k-Seq, kA / k0A0; sequences stand for … in GGGAAUGGAUCCACAUCUACGAAUUC…UUCACUGCAGACUUGACGAAGCUG
Summary of the method: as §1

biotinyl-Phe-oxazolone = test: self-aminoacylation, catalytic enhancement (BFO) (fold over background); higher = more active; k-Seq, kA / k0A0; sequences stand for … in GGGAAUGGAUCCACAUCUACGAAUUC…UUCACUGCAGACUUGACGAAGCUG
Summary of the method: as §1

biotinyl-Trp-oxazolone = test: self-aminoacylation, catalytic enhancement (BWO) (fold over background); higher = more active; k-Seq, kA / k0A0; sequences stand for … in GGGAAUGGAUCCACAUCUACGAAUUC…UUCACUGCAGACUUGACGAAGCUG
Summary of the method: as §1

biotinyl-Ile-oxazolone = test: self-aminoacylation, catalytic enhancement (BIO) (fold over background); higher = more active; k-Seq, kA / k0A0; sequences stand for … in GGGAAUGGAUCCACAUCUACGAAUUC…UUCACUGCAGACUUGACGAAGCUG
Summary of the method: as §1

| Sequence | self-aminoacylation (biotinyl-Leu-oxazolone) | self-aminoacylation (biotinyl-Val-oxazolone) | self-aminoacylation (biotinyl-Met-oxazolone) | self-aminoacylation (biotinyl-Phe-oxazolone) | self-aminoacylation (biotinyl-Trp-oxazolone) | self-aminoacylation (biotinyl-Ile-oxazolone) |
| --- | --- | --- | --- | --- | --- | --- |
| AGUCACCUAGGACAUCGGGUG [Fam2.2 aminoacylation ribozyme variant] | 4.11 | 5.02 | 4.24 | 26.6 | 6.31 | 4.13 |
| AGUCACCUAGGUCAUCGGGUU [Fam2.2 aminoacylation ribozyme variant] | 7.09 | 4.18 | 5.25 | 21.7 | 4.8 | 4.28 |
| AGUCACCUAGGUCUUCGGGUG [Fam2.2 aminoacylation ribozyme variant] | 8.46 | 6.48 | 6.75 | 56.4 | 8.99 | 6.51 |
| AGUCACCUAUGUCAUCGGGUG [Fam2.2 aminoacylation ribozyme variant] | 4.74 | 3.19 | 4.37 | 31.8 | 4.85 | 3.74 |
| AGUCACCUGGGUCAUCGGGUG [Fam2.2 aminoacylation ribozyme variant] | 4.04 | 4.96 | 3.98 | 35.4 | 5.64 | 4.56 |
| AGUCACUUAGGUCAUCGGGUG [Fam2.2 aminoacylation ribozyme variant] | 6.96 | 4.36 | 5.12 | 46.1 | 5.93 | 4.65 |
| AGUCGCCUAGGUCAUCGGGUG [Fam2.2 aminoacylation ribozyme variant] | 7.99 | 5.42 | 6.31 | 49 | 9.01 | 5.29 |
| AUAAACCUAGGUCAUCGGGUG [Fam2.2 aminoacylation ribozyme variant] | 4.39 | 2.43 | 3.29 | 20.4 | 3.73 | 2.57 |
| AUAACCCUGAUCAUCGAGUGA [Fam2.1 aminoacylation ribozyme variant] | 6.46 | 3.27 | 6.16 | 20.9 | 8.47 | 2.79 |
| AUAACCCUGGUCAGCGAGUGA [Fam2.1 aminoacylation ribozyme variant] | 5.25 | 2.92 | 4.66 | 25.1 | 6.19 | 3.52 |
| AUAACCCUGGUCAUCGAGUGC [Fam2.1 aminoacylation ribozyme variant] | 2.44 | 1.42 | 1.96 | 4.44 | 1.89 | 1.33 |
| AUAACCCUGGUCAUUGAGUGA [Fam2.1 aminoacylation ribozyme variant] | 8.57 | 3.82 | 8.67 | 36.7 | 10.2 | 3.89 |
| AUAACCCUGGUCCUCGAGUGA [Fam2.1 aminoacylation ribozyme variant] | 3.52 | 1.79 | 2.77 | 13.1 | 3.38 | 1.91 |
| AUAACCCUGGUUAUCGAGUGA [Fam2.1 aminoacylation ribozyme variant] | 8.11 | 3.44 | 8.37 | 38.8 | 8.28 | 3.74 |
| AUAACCUUGGUCAUCGAGUGA [Fam2.1 aminoacylation ribozyme variant] | 6.06 | 3.3 | 5.95 | 27.1 | 7.25 | 2.94 |
| AUAACUCUGGUCAUCGAGUGA [Fam2.1 aminoacylation ribozyme variant] | 5.36 | 3.04 | 5.54 | 19.5 | 6.33 | 3.06 |
| AUACACCCAGGUCAUCGGGUG [Fam2.2 aminoacylation ribozyme variant] | 4.64 | 3.3 | 5.29 | 32.7 | 5.99 | 3.78 |
| AUACACCUAAGUCAUCGGGUG [Fam2.2 aminoacylation ribozyme variant] | 5.83 | 2.91 | 4.44 | 28.8 | 4.14 | 3.47 |
| AUACACCUAGAUCAUCGGGUG [Fam2.2 aminoacylation ribozyme variant] | 2.73 | 1.69 | 3 | 7.92 | 3.43 | 1.85 |
| AUACACCUAGGACAUCGGGUG [Fam2.2 aminoacylation ribozyme variant] | 2.82 | 2.79 | 2.98 | 14.1 | 5.32 | 2.73 |
| AUACACCUAGGUCAUCGGAUG [Fam2.2 aminoacylation ribozyme variant] | 0.994 | 0.946 | 0.978 | 0.387 | 0.96 | 1.03 |
| AUACACCUAGGUCAUCUGGUG [Fam2.2 aminoacylation ribozyme variant] | 1.68 | 1.23 | 1.56 | 4.68 | 1.41 | 1.4 |

| Sequence | self-aminoacylation (biotinyl-Leu-oxazolone) | self-aminoacylation (biotinyl-Val-oxazolone) | self-aminoacylation (biotinyl-Met-oxazolone) | self-aminoacylation (biotinyl-Phe-oxazolone) | self-aminoacylation (biotinyl-Trp-oxazolone) | self-aminoacylation (biotinyl-Ile-oxazolone) |
| --- | --- | --- | --- | --- | --- | --- |
| AUACACCUAUGUCAUCGGGUG [Fam2.2 aminoacylation ribozyme variant] | 3.86 | 2.52 | 3.42 | 17.3 | 3.58 | 2.46 |
| AUACACCUCGGUCAUCGGGUG [Fam2.2 aminoacylation ribozyme variant] | 3.14 | 3.18 | 3.08 | 23.3 | 3.09 | 2.82 |
| AUACGCCUAGGUCAUCGGGUG [Fam2.2 aminoacylation ribozyme variant] | 7.77 | 4.07 | 7.57 | 36 | 7.38 | 4.85 |
| AUACUUCAAACAAUCAGUCUG [Fam1A.1 aminoacylation ribozyme variant] | 0.979 | 1.02 | 0.823 | 9.06 | 4.24 | 0.975 |
| AUACUUCAAACAAUCGGUAUG [Fam1A.1 aminoacylation ribozyme variant] | 0.732 | 0.744 | 0.732 | 3.52 | 2.3 | 0.925 |
| AUACUUCAAAUAAUCGGUCUG [Fam1A.1 aminoacylation ribozyme variant] | 0.998 | 0.877 | 0.965 | 5.26 | 4.17 | 0.992 |
| AUACUUCAAUCAAUCGGUCUG [Fam1A.1 aminoacylation ribozyme variant] | 1.33 | 1.06 | 1.19 | 8.53 | 6.62 | 1.11 |
| AUACUUCCAACAAUCGGUCUG [Fam1A.1 aminoacylation ribozyme variant] | 0.743 | 0.727 | 0.705 | 0.856 | 0.721 | 0.782 |
| AUAGACCUAGGUCAUCGGGUG [Fam2.2 aminoacylation ribozyme variant] | 3.85 | 2.65 | 2.93 | 19.5 | 4.2 | 2.59 |
| AUAUACCUAGGUCAUCGGGUG [Fam2.2 aminoacylation ribozyme variant] | 5.38 | 2.74 | 3.97 | 25.9 | 4.16 | 2.65 |
| AUCAACCUGGUCAUCGAGUGA [Fam2.1 aminoacylation ribozyme variant] | 11.9 | 4.81 | 10 | 43.5 | 9.87 | 5.12 |
| AUCACCCUGAUCAUCGAGUGA [Fam2.1 aminoacylation ribozyme variant] | 10.2 | 4.32 | 10.8 | 62.3 | 10.9 | 4.86 |
| AUCACCCUGGUCAACGAGUGA [Fam2.1 aminoacylation ribozyme variant] | 10.6 | 4.69 | 9.31 | 64.3 | 10.6 | 4.43 |
| AUCACCCUGGUCACCGAGUGA [Fam2.1 aminoacylation ribozyme variant] | 15.4 | 5.92 | 17.5 | 96.6 | 13.2 | 6.34 |
| AUCACCCUGGUCAUCGAAUGA [Fam2.1 aminoacylation ribozyme variant] | 1.29 | 1.41 | 1.13 | 0.93 | 0.777 | 1.26 |
| AUCACCGUGGUCAUCGAGUGA [Fam2.1 aminoacylation ribozyme variant] | 6.15 | 4.01 | 7.05 | 52.5 | 7.75 | 3.99 |
| AUCACGCUGGUCAUCGAGUGA [Fam2.1 aminoacylation ribozyme variant] | 5.91 | 4.4 | 6.1 | 33.1 | 6.96 | 4.36 |
| AUCCAACUAGGUCAUCGGGUG [Fam2.2 aminoacylation ribozyme variant] | 9.99 | 4.93 | 8.53 | 80.9 | 8.01 | 5.82 |
| AUCCACCAAGGUCAUCGGGUG [Fam2.2 aminoacylation ribozyme variant] | 10.1 | 6.37 | 9.18 | 68.2 | 7.83 | 5.16 |
| AUCCACCUAGAUCAUCGGGUG [Fam2.2 aminoacylation ribozyme variant] | 4.88 | 3.26 | 3.25 | 23.2 | 4.45 | 3.37 |
| AUCCACCUAGCUCAUCGGGUG [Fam2.2 aminoacylation ribozyme variant] | 2.55 | 2.89 | 3.28 | 23.3 | 2.55 | 2.2 |
